Among the data in patent US20170037133A1 are MV4-11 cell lysis in the presence of 0.1 ng/ml AMG 330 and cell kill of MV4-11 (7-AAD positive target cells, 24 h co-culture with PBMCs, no AMG 330) values, retold here.

The target in one assay is CD155 (PVR) (UniProt P15151). The experiment in a line: cell-based or functional assay.
The target of a further assay is CD112 (Nectin-2, PVRL2) (UniProt Q92692). The experiment in a line: cell-based or functional assay.
Sequence of UniProt Q92692 (Q92692 32-538 limits assumed): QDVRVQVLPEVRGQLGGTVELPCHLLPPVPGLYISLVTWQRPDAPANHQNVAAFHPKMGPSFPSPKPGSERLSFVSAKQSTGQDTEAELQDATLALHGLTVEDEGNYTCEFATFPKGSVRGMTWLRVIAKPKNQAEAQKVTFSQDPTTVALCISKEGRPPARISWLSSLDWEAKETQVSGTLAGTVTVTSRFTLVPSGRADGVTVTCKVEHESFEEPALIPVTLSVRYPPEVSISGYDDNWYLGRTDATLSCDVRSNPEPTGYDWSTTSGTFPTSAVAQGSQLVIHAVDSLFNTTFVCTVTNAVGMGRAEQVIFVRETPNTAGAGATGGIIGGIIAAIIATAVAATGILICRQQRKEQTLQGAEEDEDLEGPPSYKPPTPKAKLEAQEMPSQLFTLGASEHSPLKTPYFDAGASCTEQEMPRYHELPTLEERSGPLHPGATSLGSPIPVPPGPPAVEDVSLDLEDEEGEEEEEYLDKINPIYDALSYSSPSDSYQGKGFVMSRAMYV

Sequence of UniProt P15151 (P15151 21-417 limits assumed): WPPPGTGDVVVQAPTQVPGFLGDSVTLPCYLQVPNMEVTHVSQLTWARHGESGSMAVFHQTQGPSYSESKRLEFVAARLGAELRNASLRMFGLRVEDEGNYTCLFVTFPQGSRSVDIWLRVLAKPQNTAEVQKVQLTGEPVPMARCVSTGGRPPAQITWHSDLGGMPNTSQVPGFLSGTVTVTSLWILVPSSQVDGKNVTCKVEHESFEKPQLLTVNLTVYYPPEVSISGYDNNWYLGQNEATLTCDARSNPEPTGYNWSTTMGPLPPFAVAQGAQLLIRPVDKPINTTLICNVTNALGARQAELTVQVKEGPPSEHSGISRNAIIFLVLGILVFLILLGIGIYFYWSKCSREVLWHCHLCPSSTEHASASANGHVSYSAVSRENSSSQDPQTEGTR

Regarding mouse anti-PVR clone D171 (antibody), in the assay with CD155 (PVR), the MV4-11 cell lysis in the presence of 0.1 ng/ml AMG 330 amounted to 49.7% and the cell kill of MV4-11 (7-AAD positive target cells, 24 h co-culture with PBMCs, no AMG 330) amounted to 33%.

For the substance mouse anti-PVRL2 clone L14 (antibody), in the assay with CD112 (Nectin-2, PVRL2), the MV4-11 cell lysis in the presence of 0.1 ng/ml AMG 330 was determined as 57.9% and the cell kill of MV4-11 (7-AAD positive target cells, 24 h co-culture with PBMCs, no AMG 330) was 40.4%.
